Columns and labels:
Test in all cases: SPR
[1] = biological target: recombinant GP38 of CCHFV Kosova-Hoti (Crimean-Congo hemorrhagic fever virus, …, UniProt B2BSL7, strain)
[2] = biological target: recombinant GP38 of CCHFV Oman-199809166 (Crimean-Congo hemorrhagic fever virus, …, UniProt A0A0U3C6Q7, strain)
[3] = biological target: recombinant GP38 of CCHFV 200406546-Turkey (Crimean-Congo hemorrhagic fever virus, …, UniProt A0A0U2SQZ0, strain)

Measured: Kd

B1: ADI-58048 IgG (antibody, V domains shown)
VH: QLQLQESGPGLVKPSETLSLTCTVSGGSITTSHYYWGWIRQPPGKGLEWVGSMYYSGGIYYNPSLKGRVTISVDTSKNQFSLKLSSVTAADTAVYYCALADAPDDAFDIWGQGTMVTVSS
VL: DIQMTQSPSSLSAFVGDRVTITCRASQSISSYLNWYQQKPGKAPKLLIYAASTLQSGVPSRFSGSGSGTDFTLTISSLQSEDFATYYCQESYSIPFTFGPGTKVDIK
< 0.398 nM: all assays above
